Values of other authors in paper PMC6396024, “Artemin and an Artemin-Derived Peptide, Artefin, Induce Neuronal Survival, and Differentiation Through Ret and NCAM” (Frontiers in Molecular Neuroscience, 2019).

Tested on: NCAM
Conditions: ref Paratcha et al., 2003; Nielsen et al., 2009; cited from earlier work
Excerpt: We have previously shown that the GDNF-binding site for NCAM is localized to the heel region and that gliafin, a GDNF-derived peptide covering this region, binds to NCAM ([Nielsen et al., 2009]). As the tertiary structure of ARTN is similar to that of GDNF, we speculated that the artefin motif also contains a potential binding site for NCAM. […] Whether NCAM can be an alternative receptor for other GFLs has been establish ...

B1: GDNF: glial cell line-derived neurotrophic factor (protein, UniProt P39905 78-211, looked up)
Glial cell line-derived …: SPDKQMAVLPRRERNRQAAAANPENSRGKGRRGQRGKNRGCVLTAIHLNVTDLGLGYETKEELIFRYCSGSCDAAETTYDKILKNLSRNRRLVSDKVGQACCRPIAFDDDLSFLDDNLVYHILRKHSAKRCGCI
interaction with NCAM: interacts directly with NCAM
